Test results published in PMC6428836, “A complex of novel protease inhibitor, ovostatin homolog, with its cognate proteases in immature mice uterine luminal fluid” (Scientific Reports, 2019).

Molecular target: the molecule itself
Assay: SEC + other: non-reducing and reducing SDS-PAGE; about 700 kDa on Sephacryl S-400, about 360 kDa in non-reducing SDS-PAGE, traces of the 162 kDa subunit under reduction; tetramer of two disulfide-linked dimers

B1: mouse ovostatin homolog (natural protein, mouse (endogenous in immature mouse ULF), UniProt Q3UU35 20-1456, looked up)
chain: AEPRYILWVSSVVQRFSSEKACLHLLNLNESVSLSVTLEYDGSSTTIFDQPVDEGNFYACADFKVSQMSSEQLAFVALLVQGNTLKISERRSVAIAAEENATFVQTDTPVHKPGDTVHFRVVTLNIWLKPVDDLYPLITVQDPQSNVIFQWINVTTFRNITQLSFQLTPEPILGDYTIVIKTQSGTTVMDHFTVNRDVLPKFEVELTAPETITIADSQFQMVTCAKYTYGQPVQGKAQIKVCRELFSPAHCESNENEICEQFTVQLKDGCASHIINTKVFQLDRSGLFMTLNVNEVVTESGTGVQMSKTHSVFITSVLGTVSFENMDPFYRRGITYFGTLKFSGPNNTPLVDKLLQLELDGKPVGNYTTDENGEARFSINTSEIFGAQISLKAVYVRPRSCHRSSWLSPEYLDAYFSASRFYSQTSSFTKIILEPKQLPCDQEKMFSVLYSLNPEAYKEASDVTFFYLVMVRGGISRSGQKQVRVQAWNGNFSFPISINADLAPSADLFVYTLHPSGEIVADNVRLQIEKCFKNKVSINFSRDKDLPGSNTSVHLQAAPDSFCALRAVDKSALLLNHGQEMTPESVYFTLPYIHQYGYFYNGLNLDDQQAEPCIPQKDLFYNGLYYTPTGNIWDGDLSNLLSNMGLKIFTNLHYRKPEVCSSQENQPLLRTFDHPNERIMMYGGGAPPSSAFHDSVDSISHAKVAIKETVRTNFPRTWIWNLVSVDSSGTANVSFLVPDTITQWEASAFCVNGNAGFGISPKVSLQISQPFFVEVTSPFSVVRSEQSDMVVTVFNYLTTCVEISVQLEASENYEASINTQRNTDSEVLQAGEQKTYVWTIIPKTLGKVNVTVVATSKQSRACPNDASKEQDVHWKDTVVKTMLVEAEGIEKEATQSFLICPKGTKASKQTLLELPSNVVEGSVRSFVTIVGDILGVAMQNLESLLQMPYGCGEQNIAQLASDVYILDYLKATDQLTEELKSKAQRLLSNGYQNHLSFKNYDGSYDVFCQSNQEGSTWLSALSFKTVEKMKEYIFIEETVPKQTLIWLVKKQKSNGCFRRDEKHVDTAQEGREGDQEDIALTAYVVGVFLEVGLNASFPALRNGLYCLEEAFSNGVTNGYTQAILAYVFALAGKEQQAKSLLSILDKSATKTNNMIYWERDEKPETDNSPSFIPSALSGETEKTCYVLLAVLSQDTQDLDYASKIVQWLAQRMNSHGGFSAMQDTTVCLLALTQYMKLTGSNPQNTITLSSEESEEVFYVNRNKRLLVQHSKVSKGHQQYTVDVEGDGCSFIQATLRYNVPLPKEASGFSLSVKTGKSNSSDEFQTKFELTVTLTYTGARESSVTVLVDVKMLSGFTPVVSSTEELKFNSQVTKTDIKNGHVLFYLENVPKEATSLTFSIEQTNHVANIQPAPVTVYSYEKGEYAFDSYNINSISDSQ
notes: ovostatin homolog, mouse, NP_001001179.2; predicted subunit 162 kDa; 360 kDa in non-reducing SDS-PAGE, about 700 kDa by gel filtration; In ULF most subunits are seen as an 88 kDa fragment under reducing conditions, only traces as the 162 kDa subunit; also called mOH; 360 kDa protein; source: endogenous, uterine luminal fluid (ULF) of DES-treated immature ICR mice; also partly purified from it …
  stoichiometry N: 4
